# Data published in patent US20140377284A1 (BIOCEROX PRODUCTS B V, published 2014).
# T1: human CD134 (full-length, on cells) (human, UniProt P43489 29-277)
# T1 construct: also called OX40; TNFRSF4
# T1 sequence: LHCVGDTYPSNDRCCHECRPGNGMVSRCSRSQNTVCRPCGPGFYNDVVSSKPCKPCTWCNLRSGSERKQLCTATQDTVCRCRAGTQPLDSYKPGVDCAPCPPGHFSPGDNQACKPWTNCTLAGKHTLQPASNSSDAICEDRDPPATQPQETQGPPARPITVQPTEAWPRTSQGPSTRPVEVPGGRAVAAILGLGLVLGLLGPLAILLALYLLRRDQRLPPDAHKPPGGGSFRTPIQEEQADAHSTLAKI
# T2: human fibronectin-derived control peptide (extra type III structural domain) (human)
# T2 construct: Synthesized by Pepscan Presto; coated on ELISA plates
# T2 peptide: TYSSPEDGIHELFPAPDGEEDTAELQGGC
# T3: truncated human CD134 'truncated (tc) CRD4' construct (human, UniProt P43489 147-277)
# T3 construct: also called truncated CRD4
# T3 sequence: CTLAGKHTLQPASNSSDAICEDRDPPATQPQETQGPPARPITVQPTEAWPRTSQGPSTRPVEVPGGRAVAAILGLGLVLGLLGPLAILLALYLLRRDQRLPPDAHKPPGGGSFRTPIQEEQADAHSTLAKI
# T4: human CD134-derived peptide (truncated CRD3 A1-module-CRD4 subdomain A1-module) (human)
# T4 construct: Synthesized by Pepscan Presto; coated on ELISA plates
# T4 peptide: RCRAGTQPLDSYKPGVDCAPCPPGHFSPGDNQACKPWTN
# What was measured:
# [1] = target: T1, human CD134 (full-length, on cells); test: flow cytometry, stable CD134 293-F clone no. 23
# Method: Full-length human CD134 (SEQ ID NO. 1) was re-cloned in a pcDNA3.1-derived expression plasmid (see Example 11 (d) below). […] After extensive washing in PBS/BSA/NaN₃, cells were subsequently incubated with 1:200 diluted PE-conjugated goat anti-mouse IgG (Fcγ specific) antibodies (Jackson ImmunoResearch) or with 1:200 diluted PE-conjugated goat anti-human IgG (Fcγ specific) antibodies (Jackson ImmunoResearch) for 30 minutes at 4° C. After extensive washing in PBS/BSA/NaN₃, cells were fixed in 2% formaldehyde in PBS/BSA/NaN₃ for 30 minutes at 4° C. Binding of antibodies was measured using flow cytometry (FACSCalibur; BD Biosciences).
# [2] = target: T5, recombinant human CD134:human Fcγ (IgG1) fusion protein (human, UniProt P01857-1 100-330 = IgG part, limits assumed); test: competition ELISA, plate-bound CD134:Fc; competitor biotinylated mouse 12H3 at 20 ng/mL
# T5 construct: domain: Fcγ (IgG1); Bought (R&D Systems); also called rhuCD134
# Method: Ninety six-wells flat-bottom ELISA plates (Corning) were coated with 50 ng/well recombinant human CD134:human Fcγ (IgG1) fusion protein (R&D Systems) in PBS o/n at 4° C. After extensive washing in PBS/0.05% Tween 20, plates were blocked in PBS/0.05% Tween 20/1% BSA fraction V (Roche) for 1 hour at RT. […] After adding 1 M H₂SO₄, optical densities were measured at a wavelength of 450 nm (reference wavelength of 655 nm) using a microplate reader (BioRad).
# [3] = target: T2, human fibronectin-derived control …; test: peptide ELISA
# Method: (§1) After adding 1 M […], optical densities was measured at a wavelength of 450 nm (reference wavelength of 655 nm) using a microplate reader (BioRad).
# (§2) Ninety six-wells flat-bottom ELISA plates (Corning) were coated with 10 ng/well human CD134-derived peptide (synthesized by Pepscan Presto, Lelystad, The Netherlands), which corresponded to amino acid sequence of truncated CRD3 A1-module-CRD4 subdomain A1 module (see SEQ ID NO. 38) or with 10 ng/well human fibronectin-derived control peptide (synthesized by Pepscan Presto, Lelystad, The Netherlands), which corresponded to amino acid sequence of extra type III structural domain (see SEQ ID NO. 37) in PBS o/n at 4° C. After extensive washing in PBS/0.05% Tween 20, plates were blocked in PBS/0.05% Tween 20/1% BSA fraction V (Roche) for 1 hour at RT. […] After extensive washing in PBS/0.05% Tween 20, binding of antibodies was determined with 1:5000 diluted horseradish peroxidase-conjugated goat anti-human IgG Fcγ-specific antibodies (Jackson ImmunoResearch) for 1 hour at RT, followed by a ready-to-use solution of TMB substrate (Invitrogen) for colorimetric detection. After adding 1 M H₂SO₄, optical densities was measured at a wavelength of 450 nm (reference wavelength of 655 nm) using a microplate reader (BioRad).
# [4] = target: T1, human CD134 (full-length, on cells); test: flow cytometry, PHA-stimulated human CD3+ T lymphocytes
# [5] = target: T3, truncated human CD134 'truncated (tc) …; test: flow cytometry, transiently transfected 293-F cells
# Method: After 48 h, surface human CD134 expression on transfected cells was analyzed by FACS analysis. To this end, transfected cells were harvested and put at 1-2×10⁶ cells/mL in ice-chilled PBS/BSA/NaN₃ supplemented with 50 μg/mL purified human IgG (Sigma; blocking Fey receptors). […] After extensive washing in PBS/BSA/NaN₃, cells were subsequently incubated with 1:200 diluted PE-conjugated goat anti-mouse IgG (Fcγ specific) antibodies (Jackson ImmunoResearch) or with 1:200 diluted PE-conjugated goat anti-human IgG (Fcγ specific) antibodies (Jackson ImmunoResearch) for 30 minutes at 4° C. […] After extensive washing in PBS/BSA/NaN₃, cells were subsequently incubated with 1:200 diluted PE-conjugated goat anti-mouse IgG (Fcγ specific) antibodies (Jackson ImmunoResearch) for 30 minutes at 4° C. After extensive washing in PBS/BSA/NaN₃, cells were fixed in 2% formaldehyde in PBS/BSA/NaN₃ for 30 minutes at 4° C. Binding of antibodies was measured using flow cytometry (FACSCalibur; BD Biosciences).
# [6] = target: T4, human CD134-derived peptide (truncated …); test: peptide ELISA, 10 ng/well peptide coated
# Method: as §1, §2
# [7] = target: T1, human CD134 (full-length, on cells); test: flow cytometry, stable CD134 293-F clone no. 5, biotinylated antibody detected with streptavidin-PE
# [8] = target: T1, human CD134 (full-length, on cells); test: competition flow cytometry, stable CD134 293-F clone no. 5; competitor biotinylated mouse 12H3 at 700 ng/mL
# Method: Full-length human CD134 (SEQ ID NO1) was re-cloned in a pcDNA3.1-derived expression plasmid (see Example 11 (c) above). […] After extensive washing in PBS/BSA/NaN₃, cells were fixed in 2% formaldehyde in PBS/BSA/NaN₃ for 30 minutes at 4° C.
# [9] = target: T5, recombinant human CD134:human Fcγ …; test: ELISA, plate-bound CD134:Fc, biotinylated antibody detected with streptavidin-HRP
binder,measurement,setting,value
"mouse anti-human CD134 monoclonal antibody clone 12H3 (antibody, V domains shown, also called m12H3; parental mouse anti-human CD134 antibody clone 12H3) VH: EVQLQQSGPELVKPGASVKISCKTSGYTFKDYTMHWVKQSHGKSLEWIGGIYPNNGGSTYNQNFKDKATLTVDKSSSTAYMEFRSLTSEDSAVYYCARMGYHGPHLDFDVWGAGTTVTVSP VL: DIVMTQSHKFMSTSLGDRVSITCKASQDVGAAVAWYQQKPGQSPKLLIYWASTRHTGVPDRFTGGGSGTDFTLTISNVQSEDLTDYFCQQYINYPLTFGGGTKLEIKR",EC50,[1],> 0.2 µg/mL
same,IC50,[2],~0.75 µg/mL
same,binding result,[3],no binding (tested: 50.0 µg/mL)
same,EC50,[4],~0.5 µg/mL
same,binding result,[5],no binding (tested: 20.0 µg/mL)
same,binding result,[6],binds
same,EC50,[7],~0.7 µg/mL
same,IC50,[8],~3.5 µg/mL
same,EC50,[9],~0.02 µg/mL
